# Data published in patent US20190022206A1 (UNIVERSITY OF COPENHAGEN, published 2019).
# B1: HIS-GMZ2ggsmSA (other)
# chain: GSTSENRNKRIGGPKLRGNVTSNIKFPSDNKGKIIRGSNDKLNKNSEDVLEQSEKSLVSENVPSGLDIDDIPKESIFIQEDQEGQTHSELNPETSEHSKDLNNNGSKNESSDIISENNKSNKVQNHFESLSDLELLENSSQDNLDKDTISTEPFPNQKHKDLQQDLNDEPLEPFPTQIHKDYKEKNLINEEDSEPFPRQKHKKVDNHNEEKNVFHENGSANGNQGSLKLKSFDEHLKDEKIENEPLVHENLSIPNDPIEQILNQPEQETNIQEQLYNEKQNVEEKQNSQIPSLDLKEPTNEDILPNHNPLENIKQSESEINHVQDHALPKENIIDKLDNQKEHIDQSQHNINVLQENNINNHQLEPQEKPNIESFEPKNIDSEIILPENVETEEIIDDVPSPKHSNHETFEEETSESEHEEAVSEKNAHETVEHEETVSQESNPEKADNDGNVSQNSNNELNENEFVESEKSEHEARSKAKEASSYDYILGWEFGGGVPEHKKEENMLSHLYVSSKDKENISKENDDVLDEKEEEAEETEEEELEEKNEEETESEISEDEEEEEEEEEKEEENDKKKEQEKEQSNENNDQKKDMEAQNLISKNQNNNEKNVKEAAESIMKTLAGLIKGNNQIDSTLKDLVEELSKYFKNHGGSGAEAGITGTWYNQHGSTFTVTAGADGNLTGQYENRAQGTGCQNSPYTLTGRYNGTKLEWRVEWNNSTENCHSRTEWRGQYQGGAEARINTQWNLTYEGGSGPATEQGQDTFTKVK
# notes: also called A7
# B2: mSA-RO-HIS (other)
# chain: AEAGITGTWYNQHGSTFTVTAGADGNLTGQYENRAQGTGCQNSPYTLTGRYNGTKLEWRVEWNNSTENCHSRTEWRGQYQGGAEARINTQWNLTYEGGSGPATEQGQDTFTKVKGGSTSENRNKRIGGPKLRGNVTSNIKFPSDNKGKIIRGSNDKLNKNSEDVLEQSEKSLVSENVPSGLDIDDIPKESIFIQEDQEGQTHSELNPETSEHSKDLNNNGSKNESSDIISENNKSNKVQNHFESLSDLELLENSSQDNLDKDTISTEPFPNQKHKDLQQDLNDEPLEPFPTQIHKDYKEKNLINEEDSEPFPRQKHKKVDNHNEEKNVFHENGSANGNQGSLKLKSFDEHLKDEKIENEPLVHENLSIPNDPIEQILNQPEQETNIQEQLYNEKQNVEEKQNSQIPSLDLKEPTNEDILPNHNPLENIKQSESEINHVQDHALPKENIIDKLDNQKEHIDQSQHNINVLQENNINNHQLEPQEKPNIESFEPKNIDSEIILPENVETEEIIDDVPSPKHSNHETFEEETSESEHEEAVSEKNAHETVEHEETVSQESNPEKADNDGNVSQNSNNELNENEFVESEKSEHEARSKAKEASSYDYILGWEFGGGVPEHKKEENMLSHLYVSSKDKENISKENDDVLDEKEEEAEETEEEELEEKNEEETESEISEDEEEEEEEEEKEEENDKKKEQEKEQSNENNDQKKDMEAQNLISKNQNNNEKNVKEAAESIMKTLAGLIKGNNQIDSTLKDLVEELSKYFKNHRSHHHHHH
# notes: also called A5
# B3: HIS-RO-mSA (other)
# chain: GSTSENRNKRIGGPKLRGNVTSNIKFPSDNKGKIIRGSNDKLNKNSEDVLEQSEKSLVSENVPSGLDIDDIPKESIFIQEDQEGQTHSELNPETSEHSKDLNNNGSKNESSDIISENNKSNKVQNHFESLSDLELLENSSQDNLDKDTISTEPFPNQKHKDLQQDLNDEPLEPFPTQIHKDYKEKNLINEEDSEPFPRQKHKKVDNHNEEKNVFHENGSANGNQGSLKLKSFDEHLKDEKIENEPLVHENLSIPNDPIEQILNQPEQETNIQEQLYNEKQNVEEKQNSQIPSLDLKEPTNEDILPNHNPLENIKQSESEINHVQDHALPKENIIDKLDNQKEHIDQSQHNINVLQENNINNHQLEPQEKPNIESFEPKNIDSEIILPENVETEEIIDDVPSPKHSNHETFEEETSESEHEEAVSEKNAHETVEHEETVSQESNPEKADNDGNVSQNSNNELNENEFVESEKSEHEAGGSGAEAGITGTWYNQHGSTFTVTAGADGNLTGQYENRAQGTGCQNSPYTLTGRYNGTKLEWRVEWNNSTENCHSRTEWRGQYQGGAEARINTQWNLTYEGGSGPATEQGQDTFTKVK
# notes: also called A6
# B4: mSA-PfRH5-HIS (other)
# chain: AEAGITGTWYNQHGSTFTVTAGADGNLTGQYENRAQGTGCQNSPYTLTGRYNGTKLEWRVEWNNSTENCHSRTEWRGQYQGGAEARINTQWNLTYEGGSGPATEQGQDTFTKVKGGSLSFENAIKKTKNQENNLTLLPIKSTEEEKDDIKNGKDIKKEIDNDKENIKTNNAKDHSTYIKSYLNTNVNDGLKYLFIPSHNSFIKKYSVFNQINDGMLLNEKNDVKNNEDYKNVDYKNVNFLQYHFKELSNYNIANSIDILQEKEGHLDFVIIPHYTFLDYYKHLSYNSIYHKYSTYGKYIAVDAFIKKINETYDKVKSKCNDIKNDLIATIKKLEHPYDINNKNDDSYRYDISEEIDDKSEETDDETEEVEDSIQDTDSNHTPSNKKKNDLMNRTFKKMMDEYNTKKKKLIKCIKNHENDFNKICMDMKNYGTNLFEQLSCYNNNFCNTNGIRFHYDEYIHKLILSVKSKNLNKDLSDMTNILQQSELLLTNLNKKMGSYIYIDTIKFIHKEMKHIFNRIEYHTKIINDKTKIIQDKIKLNIWRTFQKDELLKRILDMSNEYSLFITSDHLRQMLYNTFYSKEKHLNNIFHHLIYVLQMKFNDVPIKMEYFQTYKKNKPLTQHHHHHH
# notes: mSA fused by GGS to PfRH5, C-terminal His tag; also called A9
# B5: HIS-GMZ2T:ggsmSA (other)
# chain: GSTSENRNKRIGGPKLRGNVTSNIKFPSDNKGKIIRGSNDKLNKNSEDVLEQSEKSLVSENVPSGLDIDDIPKESIFIQEDQEGQTHSELNPETSEHSKDLNNNGSKNESSDIISENNKSNKVQNHFESLSDLELLENSSQDNLDKDTISTEPFPNQKHKDLQQDLNDEPLEPFPTQIHKDYKEKNLINEEDSEPFPRQKHKKVDNHNEEKNVFHENGSANGNQGSLKLKSFDEHLKDEKIENEPLVHENLSIPNDPIEQILNQPEQETNIQEQLYNEKQNVEEKQNSQIPSLDLKEPTNEDILPNHNPLENIKQSESEINHVQDHALPKENIIDKLDNQKEHIDQSQHNINVLQENNINNHQLEPQEKPNIESFEPKNIDSEIILPENVETEEIIDDVPSPKHSNHETFEEETSESEHEEAVSEKNAHETVEHEETVSQESNPEKADNDGNVSQNSNNELNENEFVESEKSEHEARSKTKEYAEKAKNAYEKAKNAYQKANQAVLKAKEASSYDYILGWEFGGGVPEHKKEENMLSHLYVSSKDKENISKENDDVLDEKEEEAEETEEEELEGGSGAEAGITGTWYNQHGSTFTVTAGADGNLTGQYENRAQGTGCQNSPYTLTGRYNGTKLEWRVEWNNSTENCHSRTEWRGQYQGGAEARINTQWNLTYEGGSGPATEQGQDTFTKVK
# notes: also called A8
# B6: mSA-ID1ID2a-HIS (other)
# chain: AEAGITGTWYNQHGSTFTVTAGADGNLTGQYENRAQGTGCQNSPYTLTGRYNGTKLEWRVEWNNSTENCHSRTEWRGQYQGGAEARINTQWNLTYEGGSGPATEQGQDTFTKVKGGSNYIKGDPYFAEYATKLSFILNPSDANNPSGETANHNDEACNCNESGISSVGQAQTSGPSSNKTCITHSSIKTNKKKECKDVKLGVRENDKDLKICVIEDTSLSGVDNCCCQDLLGILQENCSDNKRGSSSNDSCDNKNQDECQKKLEKVFASLTNGYKCDKCKSGTSRSKKKWIWKKSSGNEEGLQEEYANTIGLPPRTQSLYLGNLPKLENVCEDVKDINFDTKEKFLAGCLIVSFHEGKNLKKRYPQNKNSGNKENLCKALEYSFADYGDLIKGTSIWDNEYTKDLELNLQNNFGKLFGKYIKKNNTAEQDTSYSSLDELRESWWNTNKKYIWTAMKHGAEMNITTCNADGSVTGSGSSCDDIPTIDLIPQYLRFLQEWVENFCEQRQAKVKDVITNCKSCKESGNKCKTECKTKCKDECEKYKKFIEACGTAGGGIGTAGSPWSKRWDQIYKRYSKHIEDAKRNRKAGTKNCGTSSTTNAAASTDENKCVQSDIDSFFKHLIDIGLTTPSSYLSNVLDDNICGADKAPWTTYTTYTTTEKCNKERDKSKSQSSDTLVVVNVPSPLGNTPYRYKYACQCKIPTNEETCDDRKEYMNQWSCGSARTMKRGYKNDNYELCKYNGVDVKPTTVRSNSSKLDHHHHHH
# notes: mSA fused at the amino terminus by Gly-Gly-Ser to the ID1-ID2a domains of VAR2CSA, C-terminal 6x histidine tag; made in baculovirus-infected High-Five cells; also called A4; mSA-VAR2CSA
# B7: mSA-Pfs25-HIS (other)
# chain: AEAGITGTWYNQHGSTFTVTAGADGNLTGQYENRAQGTGCQNSPYTLTGRYNGTKLEWRVEWNNSTENCHSRTEWRGQYQGGAEARINTQWNLTYEGGSGPATEQGQDTFTKVKGGSNKLYSLFLFLFIQLSIKYNNAKVTVDTVCKRGFLIQMSGHLECKCENDLVLVNEETCEEKVLKCDEKTVNKPCGDFSKCIKIDGNPVSYACKCNLGYDMVNNVCIPNECKNVTCGNGKCILDTSNPVKTGVCSCNIGKVPNVQDQNKCSKDGETKCSLKCLKENETCKAVDGIYKCDCKDGFIIDNESSICTAFSAYNILNLSIMFILFSVCFFIM
# notes: also called A10
# What was measured:
# [1] = target: T1, biotinylated HPV16 Avi-L1 VLP, L1avi1 (H4-loop, HPV16) (Human papillomavirus type 16, UniProt P03101 14-505); assay: biotinylated VLPs mixed with excess mSA-antigen, density gradient ultracentrifugation, SDS-PAGE
# T1 construct: also called VLP1; Avi-L1 (H4-βJ coil)
# T1 sequence: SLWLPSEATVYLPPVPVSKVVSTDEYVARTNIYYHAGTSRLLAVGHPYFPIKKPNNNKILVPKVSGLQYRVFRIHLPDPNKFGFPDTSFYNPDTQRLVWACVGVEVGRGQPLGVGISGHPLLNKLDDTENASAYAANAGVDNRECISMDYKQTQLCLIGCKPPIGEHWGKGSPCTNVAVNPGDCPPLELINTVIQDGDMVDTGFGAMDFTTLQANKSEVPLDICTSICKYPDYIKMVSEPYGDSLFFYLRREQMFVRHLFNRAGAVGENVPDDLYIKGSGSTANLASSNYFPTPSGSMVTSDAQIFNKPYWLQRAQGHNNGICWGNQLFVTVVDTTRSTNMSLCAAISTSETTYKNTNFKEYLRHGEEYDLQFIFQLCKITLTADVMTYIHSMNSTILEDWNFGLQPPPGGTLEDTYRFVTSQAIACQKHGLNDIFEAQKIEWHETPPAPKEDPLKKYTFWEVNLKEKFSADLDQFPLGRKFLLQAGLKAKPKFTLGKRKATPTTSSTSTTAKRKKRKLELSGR
# [2] = target: T2, biotinylated HPV16 Avi-L1 VLP, L1avi3 (DE-loop, HPV16) (Human papillomavirus type 16, UniProt P03101 2-505); assay: coupling: biotinylated VLPs mixed with excess mSA-antigen, density gradient ultracentrifugation, SDS-PAGE
# T2 construct: also called VLP3; Avi-L1 (DE)
# T2 sequence: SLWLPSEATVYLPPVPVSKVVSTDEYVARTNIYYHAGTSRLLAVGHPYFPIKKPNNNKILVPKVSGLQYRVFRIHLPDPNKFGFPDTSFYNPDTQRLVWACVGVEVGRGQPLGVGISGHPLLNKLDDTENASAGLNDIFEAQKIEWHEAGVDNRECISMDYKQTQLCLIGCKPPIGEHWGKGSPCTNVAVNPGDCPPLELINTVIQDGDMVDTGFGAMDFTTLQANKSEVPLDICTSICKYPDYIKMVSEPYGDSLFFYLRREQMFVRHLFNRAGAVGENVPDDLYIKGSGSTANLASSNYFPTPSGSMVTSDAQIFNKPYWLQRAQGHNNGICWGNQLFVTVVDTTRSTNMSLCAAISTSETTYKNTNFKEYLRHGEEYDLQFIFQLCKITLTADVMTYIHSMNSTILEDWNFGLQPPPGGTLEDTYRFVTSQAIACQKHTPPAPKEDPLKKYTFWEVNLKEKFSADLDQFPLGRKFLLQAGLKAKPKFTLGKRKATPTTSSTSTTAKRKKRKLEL
binder,measurement,setting,value
B1,binding result,[1],no binding
same,binding result,[2],binds
B2,binding result,[1],no binding
B3,binding result,[1],no binding
same,binding result,[2],binds
B4,binding result,[1],no binding
same,binding result,[2],binds
B5,binding result,[1],no binding
same,binding result,[2],binds
B6,binding result,[1],no binding
same,binding result,[2],binds
B7,binding result,[1],no binding
